In paper PMC5029526 one finds stoichiometry N data, which are given here for one substance.

For this assay, the target named is HdaB-dsA (donor strand complemented HdaB: HdaB residues 1-119, 14-residue linker, HdaA residues 1-10) (Escherichia coli (enteroaggregative, EAEC)). The assay is described as follows: SEC; Superdex-75 gel filtration in 50 mM NaOAc pH 5.0, 200 mM NaCl, last step of purification after refolding; monomer (17.5 kDa) and dimer (35 kDa) peaks. Background: Size exclusion chromatography separates by hydrodynamic size, large species first.

Consider “HdaB-dsA (donor strand complemented HdaB: HdaB residues 1-119, 14-residue linker, HdaA residues 1-10)”, for which the stoichiometry N (usually the number of molecules, sites or subunits per partner or assembly) is 2.
